# In publication PMC5027291, “The NF-YC–RGL2 module integrates GA and ABA signalling to regulate seed germination in Arabidopsis” (Nature Communications, 2016):
# T1: GST-RGL2 (Arabidopsis, UniProt Q8GXW1 1-547)
# T1 construct: RGL2 of Arabidopsis; coding region cloned into pGEX-4T-1; source: E. coli Rosetta (DE3), purified (Glutathione Sepharose beads); not shown: GST, N-terminal, kept
# T1 sequence (looked up): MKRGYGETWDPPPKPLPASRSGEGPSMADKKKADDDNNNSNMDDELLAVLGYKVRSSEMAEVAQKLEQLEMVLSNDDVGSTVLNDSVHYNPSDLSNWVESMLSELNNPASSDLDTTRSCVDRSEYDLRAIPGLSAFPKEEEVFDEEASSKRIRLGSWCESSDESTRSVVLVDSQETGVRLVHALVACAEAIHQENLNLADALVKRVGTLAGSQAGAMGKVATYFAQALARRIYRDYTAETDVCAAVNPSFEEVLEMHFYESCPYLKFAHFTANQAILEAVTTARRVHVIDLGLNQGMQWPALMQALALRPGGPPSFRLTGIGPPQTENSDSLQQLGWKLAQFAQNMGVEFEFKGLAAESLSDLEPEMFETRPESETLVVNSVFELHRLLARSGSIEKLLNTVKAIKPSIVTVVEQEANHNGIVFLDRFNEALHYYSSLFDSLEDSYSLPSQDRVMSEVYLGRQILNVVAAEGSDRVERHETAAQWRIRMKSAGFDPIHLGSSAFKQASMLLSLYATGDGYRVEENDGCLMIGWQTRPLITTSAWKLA
# Molecular target: T1, GST-RGL2
# Experiment: pull-down; 2 ug of His-NF-YCs incubated with GST or GST-RGL2 immobilised on Glutathione Sepharose beads; 50 mM Tris-HCl pH 8.0, 100 mM NaCl, 1 mM EDTA; 4 °C, 2 h; blots with anti-His and anti-GST
# Conditions: both partners purified
row,binding result,Binder
1,binds,"His-NF-YC4 (natural protein, Arabidopsis, UniProt Q9FMV5 1-250, looked up, NF-YC4 of Arabidopsis; coding region cloned into pQE30; source: E. coli Rosetta (DE3), purified (Ni-NTA agarose); not shown: His, N-terminal, kept) MDNNNNNNNQQPPPTSVYPPGSAVTTVIPPPPSGSASIVTGGGATYHHLLQQQQQQLQMFWTYQRQEIEQVNDFKNHQLPLARIKKIMKADEDVRMISAEAPILFAKACELFILELTIRSWLHAEENKRRTLQKNDIAAAITRTDIFDFLVDIVPREEIKEEEDAASALGGGGMVAPAASGVPYYYPPMGQPAVPGGMMIGRPAMDPSGVYAQPPSQAWQSVWQNSAGGGDDVSYGSGGSSGHGNLDSQG"
2,binds,"His-NF-YC3 (natural protein, Arabidopsis, UniProt Q9ZVL3 1-217, looked up, NF-YC3 of Arabidopsis; coding region cloned into pQE30; source: E. coli Rosetta (DE3), purified (Ni-NTA agarose); not shown: His, N-terminal, kept) MDQQGQSSAMNYGSNPYQTNAMTTTPTGSDHPAYHQIHQQQQQQLTQQLQSFWETQFKEIEKTTDFKNHSLPLARIKKIMKADEDVRMISAEAPVVFARACEMFILELTLRSWNHTEENKRRTLQKNDIAAAVTRTDIFDFLVDIVPREDLRDEVLGGVGAEAATAAGYPYGYLPPGTAPIGNPGMVMGNPGAYPPNPYMGQPMWQQPGPEQQDPDN"
3,binds,"His-NF-YC9 (natural protein, Arabidopsis, UniProt Q8L4B2 1-231, looked up, NF-YC9 of Arabidopsis; coding region cloned into pQE30; source: E. coli Rosetta (DE3), purified (Ni-NTA agarose); not shown: His, N-terminal, kept) MDQQDHGQSGAMNYGTNPYQTNPMSTTAATVAGGAAQPGQLAFHQIHQQQQQQQLAQQLQAFWENQFKEIEKTTDFKNHSLPLARIKKIMKADEDVRMISAEAPVVFARACEMFILELTLRSWNHTEENKRRTLQKNDIAAAVTRTDIFDFLVDIVPREDLRDEVLGSIPRGTVPEAAAAGYPYGYLPAGTAPIGNPGMVMGNPGGAYPPNPYMGQPMWQQQAPDQPDQEN"
